Patent US20210388087A1 (Chugai, published 2021)
Changes are numbered by the printed parent chain.

B1: CE115HA000/GLS3000 S27eH (antibody, IgG1, name in Kabat numbering, V domains shown)
VH: QVQLVESGGGVVQPGRSLRLSCAASGFTFSNAWMHWVRQAPGKGLEWVAQIKAKSNNYATYYAESVKGRFTISRDDSKNSLYLQMNSLKTEDTAVYYCRYVHYGAYYGVDAWGQGTTVTVSS
VL: DIVMTQSPLSLPVTPGEPASISCRSSQSLVHHNRNTYLHWYQQKPGQAPRLLIYKVSNRFSGVPDRFSGSGSGTDFTLKISRVEAEDVGVYYCGQGTQVPYTFGQGTKLEIK
notes: one-arm IgG1
B2: CE115HA000/GLS3000 S56A (antibody, IgG1, name in Kabat numbering, V domains shown)
VH: B1 VH
VL: B1 VL with H32S, S61A
notes: one-arm IgG1
B3: CE115HA000/GLS3000 S56K (antibody, IgG1, name in Kabat numbering, V domains shown)
VH: B1 VH
VL: B1 VL with H32S, S61K
notes: one-arm IgG1
B4: CE115HA000/GLS3000 S56T (antibody, IgG1, name in Kabat numbering, V domains shown)
VH: B1 VH
VL: B1 VL with H32S, S61T
notes: one-arm IgG1
B5: CE115HA000/GLS3000 S27eL (antibody, IgG1, name in Kabat numbering, V domains shown)
VH: B1 VH
VL: B1 VL with H32L
notes: one-arm IgG1
B6: CE115HA000/GLS3000 S27eK (antibody, IgG1, name in Kabat numbering, V domains shown)
VH: B1 VH
VL: B1 VL with H32K
notes: one-arm IgG1
B7: CE115HA000/GLS3000 S27eI (antibody, IgG1, name in Kabat numbering, V domains shown)
VH: B1 VH
VL: B1 VL with H32I
notes: one-arm IgG1
B8: CE115HA000/GLS3000 S56P (antibody, IgG1, name in Kabat numbering, V domains shown)
VH: B1 VH
VL: B1 VL with H32S, S61P
notes: one-arm IgG1
B9: CE115HA000/GLS3000 S56L (antibody, IgG1, name in Kabat numbering, V domains shown)
VH: B1 VH
VL: B1 VL with H32S, S61L
notes: one-arm IgG1
B10: CE115HA000/GLS3000 S27eT (antibody, IgG1, name in Kabat numbering, V domains shown)
VH: B1 VH
VL: B1 VL with H32T
notes: one-arm IgG1
B11: CE115HA000/GLS3000 S27eR (antibody, IgG1, name in Kabat numbering, V domains shown)
VH: B1 VH
VL: B1 VL with H32R
notes: one-arm IgG1
B12: CE115HA000/GLS3000 S52Q (antibody, IgG1, name in Kabat numbering, V domains shown)
VH: B1 VH
VL: B1 VL with H32S, S57Q
notes: one-arm IgG1
B13: CE115HA000/GLS3000 S52Y (antibody, IgG1, name in Kabat numbering, V domains shown)
VH: B1 VH
VL: B1 VL with H32S, S57Y
notes: one-arm IgG1
B14: CE115HA000/GLS3000 S27eM (antibody, IgG1, name in Kabat numbering, V domains shown)
VH: B1 VH
VL: B1 VL with H32M
notes: one-arm IgG1
B15: CE115HA000/GLS3000 S56E (antibody, IgG1, name in Kabat numbering, V domains shown)
VH: B1 VH
VL: B1 VL with H32S, S61E
notes: one-arm IgG1
B16: CE115HA000/GLS3000 S27eW (antibody, IgG1, name in Kabat numbering, V domains shown)
VH: B1 VH
VL: B1 VL with H32W
notes: one-arm IgG1
B17: CE115HA000/GLS3000 S27eV (antibody, IgG1, name in Kabat numbering, V domains shown)
VH: B1 VH
VL: B1 VL with H32V
notes: one-arm IgG1
B18: CE115HA000/GLS3000 S52A (antibody, IgG1, name in Kabat numbering, V domains shown)
VH: B1 VH
VL: B1 VL with H32S, S57A
notes: one-arm IgG1
B19: CE115HA000/GLS3000 S52D (antibody, IgG1, name in Kabat numbering, V domains shown)
VH: B1 VH
VL: B1 VL with H32S, S57D
notes: one-arm IgG1
B20: CE115HA000/GLS3000 S56N (antibody, IgG1, name in Kabat numbering, V domains shown)
VH: B1 VH
VL: B1 VL with H32S, S61N
notes: one-arm IgG1
B21: CE115HA000/GLS3000 S56H (antibody, IgG1, name in Kabat numbering, V domains shown)
VH: B1 VH
VL: B1 VL with H32S, S61H
notes: one-arm IgG1
B22: CE115HA000/GLS3000 S56Q (antibody, IgG1, name in Kabat numbering, V domains shown)
VH: B1 VH
VL: B1 VL with H32S, S61Q
notes: one-arm IgG1
B23: CE115HA000/GLS3000 S27eP (antibody, IgG1, name in Kabat numbering, V domains shown)
VH: B1 VH
VL: B1 VL with H32P
notes: one-arm IgG1
B24: CE115HA000/GLS3000 S56M (antibody, IgG1, name in Kabat numbering, V domains shown)
VH: B1 VH
VL: B1 VL with H32S, S61M
notes: one-arm IgG1
B25: CE115HA000/GLS3000 S56D (antibody, IgG1, name in Kabat numbering, V domains shown)
VH: B1 VH
VL: B1 VL with H32S, S61D
notes: one-arm IgG1
B26: CE115HA000/GLS3000 S27eN (antibody, IgG1, name in Kabat numbering, V domains shown)
VH: B1 VH
VL: B1 VL with H32N
notes: one-arm IgG1
B27: CE115HA000/GLS3000 S27eY (antibody, IgG1, name in Kabat numbering, V domains shown)
VH: B1 VH
VL: B1 VL with H32Y
notes: one-arm IgG1
B28: CE115HA000/GLS3000 S27eQ (antibody, IgG1, name in Kabat numbering, V domains shown)
VH: B1 VH
VL: B1 VL with H32Q
notes: one-arm IgG1
B29: CE115HA000/GLS3000 S56I (antibody, IgG1, name in Kabat numbering, V domains shown)
VH: B1 VH
VL: B1 VL with H32S, S61I
notes: one-arm IgG1
B30: CE115HA000/GLS3000 S52P (antibody, IgG1, name in Kabat numbering, V domains shown)
VH: B1 VH
VL: B1 VL with H32S, S57P
notes: one-arm IgG1
B31: CE115HA000/GLS3000 S56G (antibody, IgG1, name in Kabat numbering, V domains shown)
VH: B1 VH
VL: B1 VL with H32S, S61G
notes: one-arm IgG1
B32: CE115HA000/GLS3000 S56F (antibody, IgG1, name in Kabat numbering, V domains shown)
VH: B1 VH
VL: B1 VL with H32S, S61F
notes: one-arm IgG1
B33: CE115HA000/GLS3000 S56R (antibody, IgG1, name in Kabat numbering, V domains shown)
VH: B1 VH
VL: B1 VL with H32S, S61R
notes: one-arm IgG1

Each binder was assayed against T1, CD3 epsilon homodimer protein (UniProt P07766 23-126) (assay: SPR, antibody over immobilised CD3e homodimer;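 note: SPR at 25 °C with CD3 epsilon homodimer amine-coupled to a CM4 sensor chip and antibody flowed over as analyte in HBS-EP+ running buffer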).
T1 construct: also called CD3 (CD3 epsilon)
T1 sequence (P07766 23-126): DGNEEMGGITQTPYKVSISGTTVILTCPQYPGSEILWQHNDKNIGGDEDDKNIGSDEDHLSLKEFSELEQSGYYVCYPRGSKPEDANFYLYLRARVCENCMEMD

In order of rising “KD ratio to GLS3000” value:
1. B18  0.9
2. B20  0.9
3. B15  0.91
4. B24  0.93
5. B19  0.94
6. B17  0.95
7. B21  0.96
8. B22  0.97
9. B8  0.98
10. B10  0.98
11. B31  0.99
12. B4  1.01
13. B12  1.01
14. B26  1.01
15. B29  1.01
16. B13  1.02
17. B9  1.03
18. B7  1.05
19. B5  1.06
20. B23  1.06
21. B28  1.08
22. B1  1.09
23. B27  1.1
24. B14  1.11
25. B25  1.11
26. B32  1.12
27. B33  1.15
28. B2  1.18
29. B3  1.21
30. B6  1.32
31. B16  1.32
32. B11  1.35
33. B30  7.38
